{
  "source": "patent US11402384B2",
  "about": "(Duke University, priority 2015, dated 2022)",
  "molecules": {"B1": {"name": "asGBP8: glucose-binding protein from Arthrobacter sp., SEQ ID NO: 16 (protein)", "chain": "MKLEITSWWTSGSEADALNVLIDGVKAAKPGLSVDNAAVSGGGGANARQALAARLQAGSPPDAWQVHPAGQLKSYVDGGQVADLTDLWTEGDWASQMPKDVAEAQQVDGKYYTVPIGVHRGNVLWTNPAVLSKANVTIDADAGIDGLISSLEQVQASGTTPLALGDKDIFASSQLLESLIMSRAGADNWTKLFTSEYSFDAPEVKQALEDYKTILSFANKDHSAITWDEAAKKMADGEAAVNLMGDWAYGELLNAGKKPGTDFAWVAFPGKEDIFDYVGDGFSIPANNIPHAEAARAWLKTLMDPKIQTEFAAKKGSIPAVTSADISGLSEYQQEAAKSLASGAVVSSLAHAQAAGAEFAQTYADAVSTFNGSGNTDAFIASMTQAQKTQLGGSHHHHHH", "modifications": "asGBP8 (with signal peptide replaced with M and a GGSHHHHHH at C-terminus)"}, "B2": {"name": "W244F A: tsGBP2.13C.W244F (SEQ ID NO: 48) Acrylodan conjugate (conjugate)", "chain": "MKLEIFSWWAGDCGPALEALIRLYKQKYPGVEVINATVTGGAGVNAKAVLKTRMLGGDPPDTFQVHAGQELIGTWVVADRMEDLTSLFRQEGWLQAFPKGLIDLLSYKGGIWSVPVNIHRSNVMWYIPAKLKEWGVTPPKTWAEFLATAQTLKRKGLEAPLALGENWTQQHLWESVALATLGADGWNNLWSGKLKFTDPKAVAVWETFGKVLDAANKDAAGLSWQQAVDRVVQGKAAFNIMGDFAAGYMSTTLKLKPGTDFAWTPSPGTSGIFMMLSDSFGLPKGAKNRQNAINWLKLVGSKEGQDTFNPLKGSIAARLDSDPAKYNAYGQSAMKDWKSNRIVGSLVHGAVAPESFMSQFGTVMEIFLQSRNPQAAANAAQAIANQVGLGRGGSHHHHHH", "modifications": "Acrylodan conjugate; tsGBP2.13C.W244F (13C, 244F double substitution mutant with signal peptide replaced with M and a GGSHHHHHH at C-terminus)"}, "B3": {"name": "tsGBP2: glucose-binding protein from Thermus scotoductus, SEQ ID NO: 10 (protein)", "chain": "MKLEIFSWWAGDEGPALEALIRLYKQKYPGVEVINATVTGGAGVNAKAVLKTRMLGGDPPDTFQVHAGQELIGTWVVADRMEDLTSLFRQEGWLQAFPKGLIDLLSYKGGIWSVPVNIHRSNVMWYIPAKLKEWGVTPPKTWAEFLATAQTLKRKGLEAPLALGENWTQQHLWESVALATLGADGWNNLWSGKLKFTDPKAVAVWETFGKVLDAANKDAAGLSWQQAVDRVVQGKAAFNIMGDWAAGYMSTTLKLKPGTDFAWTPSPGTSGIFMMLSDSFGLPKGAKNRQNAINWLKLVGSKEGQDTFNPLKGSIAARLDSDPAKYNAYGQSAMKDWKSNRIVGSLVHGAVAPESFMSQFGTVMEIFLQSRNPQAAANAAQAIANQVGLGRGGSHHHHHH", "modifications": "tsGBP2 (with signal peptide replaced with M and a GGSHHHHHH at C-terminus)"}, "B4": {"name": "ttGBP1: glucose-binding protein from Thermus thermophilus, SEQ ID NO: 9 (protein)", "chain": "MKLEIFSWWAGDEGPALEALIRLYKQKYPGVEVINATVTGGAGVNARAVLKTRMLGGDPPDTFQVHAGMELIGTWVVANRMEDLSALFRQEGWLQAFPKGLIDLISYKGGIWSVPVNIHRSNVMWYLPAKLKGWGVNPPRTWDKFLATAQTLKQKGLEAPLALGENWTQQHLWESVALAVLGPDDWNNLWNGKLKFTDPKAVRAWEVFGRVLDAANKDAAGLSWQQAVDRVVQGKAAFNIMGDWAAGYMTTTLKLKPGTDFAWAPSPGTQGVFMMLSDSFGLPKGAKNRQNAINWLRLVGSKEGQDTSNPLKGSIAARLDSDPSKYNAYGQSAMRDWRSNRIVGSLVHGAVAPESFMSQFGTVMEIFLQTRNPQAAANAAQAIADQVGLGRLGQHHHHHH", "modifications": "ttGBP1 (with signal peptide replaced with M and a HHHHHH at C-terminus)"}, "B5": {"name": "dmGBP3: glucose-binding protein from Deinococcus maricopensis, SEQ ID NO: 11 (protein)", "chain": "MKLEIFSWWSGDEGPALEALVKLYKQKYPSVDVVNATVAGGAGTNAKAVLKTRMLGGDPPDSFQAHAGQELIGTWVVANRMEDLSSLFKSEGWTTKFPKDLLPLISSKGGIWSVPVNVHRSNVMWYIPANLKKWGVTAPKTWDQFLTTAKTLKTKNVTPLALGENWTQQHLWESVAVGTLGAQGWQNLWSGKLKFTDPKVVKVWDTFGKVLDATNKDASGLSWQQATDRVVNGQAAFNIMGDWAAGYLSTTKKLKPGTGFGWAPSPSTSGTFIFLADSFGLPKGAKDRAEALSWLKLLGSKQGQDTFNPLKGSIAARVDSDLSKYSTYSQSAAKDWKSNKIVGSLTHGAVAPESFTSTFGTVIDAFVASRNAQVAAATTQQLADKAGLGKGGSHHHHHH", "modifications": "dmGBP3 (with signal peptide replaced with M and a GGSHHHHHH at C-terminus)"}},
  "key": {"[1]": {"details": "ligand-free protein; SYPRO Orange, Roche LightCycler", "method": "Eight homologs that were predicted to be glucose-binding proteins (FIG. 4, Table 3) were selected to probe different degrees of sequence identity to the ttGBP1 seed, and their glucose-binding properties were determined experimentally. These experiments comprised four successive steps: • 1. Synthetic gene construction. The amino acid sequence of the homology leads were backtranslated into DNA sequences. These were optimized for directing heterologous cytoplasmic expression of the protein homologues in E. coli, using either the OrfOpt or OrfMorph programs. These programs predict mRNA sequences that direct high-level protein expression in E. coli. The predicted gene sequences were assembled de novo from synthetic oligonucleotides. • 2. Heterologous protein expression of the homologues in E. coli. Plasmids carrying the synthetic expression constructs (see above) were transformed into KRX competent cells (Promega). Protein production was induced in bacterial cultures of these cultures, as described in the Materials and Methods. • 3. Purification of successfully expressed protein using immobilized metal affinity chromatography. • 4. Verification of glucose binding. Determination of the glucose-binding properties of the purified proteins using a thermal stability shift assay.\nAnalysis of glucose-binding properties using thermal melts. The thermal stability of purified GBP candidate proteins was determined by measuring the temperature-dependence of the fluorescence signal of an extrinsically added dye, SYPRO, using a Roche LightCycler (Layton and Hellinga, 2010, Biochemistry, 49, 10831-41). The total fluorescence intensity, S, is given by S=βFfF+βUfU 11 where fF and fU are the fractions of protein in the folded and unfolded states, respectively, and βF and βU the fluorescence baselines of these two states. To get the fractions of the two states, we have\n[formula] where KU(T) is the temperature-dependent unfolding equilibrium constant, which by the van't Hoff approximation is given by\n[formula] Where T is the temperature, Tm, the unfolding reaction transition mid-point temperature, and ΔHU the enthalpy of unfolding."}, "[2]": {"experiment": "Immobilization on Ni-NTA magnetic beads, drying and accelerated aging of sensor", "type": "physicochemical", "method": "The magnetic beads coated with immobilized tsGBP13C_ 244F.Acrylodan were dried by incubation at 50° C. for 20 minutes, using an aqueous ammonium bicarbonate buffer. […] The dried beads were aged in situ inside fully assembled sample-handling cartridges by incubation for up to 7 days at 25° C., 37° C., and 50° C. in the dark. Fluorescence and glucose-responsive properties were tested in cartridges stored for 1, 2 and 7 days. […] The tsGBP2-based FRSs therefore are sufficiently robust to be handled at ambient temperatures in a desiccated state, greatly simplifying manufacturing, distribution, and long-term storage conditions."}},
  "data": [
    {"molecule": "B1", "values": [
      {"measurement": "Thermostability ^apoTm", "setting": "[1]", "result": 58, "unit": "°C"}
    ]},
    {"molecule": "B2", "values": [
      {"measurement": "stability properties upon rehydration after drying", "setting": "[2]; beads dried at 50° C. for 20 minutes, determined up to 100° C.", "result": "recovered upon rehydration"},
      {"measurement": "fluorescence ratio in the absence of glucose and glucose affinities after aging", "setting": "[2]; dried beads stored 1, 2 and 7 days at 25° C., 37° C., and 50° C. in the dark", "result": "remained approximately unchanged"},
      {"measurement": "protein stability on beads compared with solution", "setting": "[2]; immobilized via C-terminal hexa-histidine tag on Ni-NTA magnetic beads, measured up to 100° C.", "result": "not perturbed"}
    ]},
    {"molecule": "B3", "values": [
      {"measurement": "Thermostability ^apoTm", "setting": "[1]", "result": ">100", "unit": "°C"}
    ]},
    {"molecule": "B4", "values": [
      {"measurement": "Thermostability ^apoTm", "setting": "[1]", "result": ">100", "unit": "°C"}
    ]},
    {"molecule": "B5", "values": [
      {"measurement": "Thermostability ^apoTm", "setting": "[1]", "result": 47, "unit": "°C"}
    ]}
  ]
}
